Measurements reported in the DeepSol protein solubility set.

Assay: soluble on expression in E. coli; label from the status in PepcDB or PDB records

| Sequence | soluble on expression in E. coli |
| --- | --- |
| SQEQAQTTDWRATLKTIRNGVHKIDTYLNAALDLLGGEDGLCQYKCSDGSKPFPRYGYKPSPPNGCGSPLFGVHLNIGIPSLTKCCNQHDRCYETCGKSKNDCDEEFQYCLSKICRDVQKTLGLTQHVQACETTVELLFDSVIHLGCKPYLDSQRAACRCHYEEKTDL | soluble |
| SQEVMKNLSLNFGKALDECKKEMTLTDAINEDFYNFWKEGYEIKNRETGCAIMCLSTKLNMLDPEGNLHHGNAMEFAKKHGADETMAQQLIDIVHGCEKSTPANDDKCIWTLGVATCFKAEIHKLNWAPSMDVAVGEILAEV | soluble |
| SQPDHGRLSPPEAPDRPTISTASETSVYVTWIPRGNGGFPIQSFRVEYKKLKKVGDWILATSAIPPSRLSVEITGLEKGISYKFRVRALNMLGESEPSAPSRPYVVSG | soluble |
| SQSAEKFQGSHLLCPGCGHGIIVREVLNAVDGPIVLGNSTGCLEVCSAVYPHTSWDVPWIHIGFENGSTAISGVEAMYKALTNKGRYQGQKPKFVAFGGDGASYDIGLQFISGCMERGHDMTYICLDNENYANTGGQRSGSTPLGASTSTTPAGSVSFGKKEKKKDIVNIMASHGVPYVAQLSPNKWKDMNKKIKTALDTEGPCFINALSPCTTEWKFESNKTIELADMAVDSLMFPLFEIFNGRELKITYRPRNIIPVRDYLGAQKRFKHLFKKENEHIIEELQKDVNERWEYLQRREEAK | not soluble |
| SRFRFCGDLDCPDWVLAEISTLAKISSVKLRLLCSQVLKELLGQGIDYEKILKLTADAKFESGDVKATVAVLSFILSSAAKHSVDSDSLSSELQQLGLPKEHATSLCRCYEEKQSPLQEHLRACSLRVNRLASVGWRVDYTLSSSLLHSVEEPMVHLQLQVVPAPGTQAQPVSMSLSADKFQVLLAELKQAQTMMTALG | soluble |
| SRIVAPPKNYPDSSQHEWVSLTRISKNMQLAVIATEDQKFPHHYGVDFESLFDVISEAGDHGPSRGASTITQQAAKNVFLFPSHSYVRKAYELYFALLMELMWSKERILEVYLNVVEFGPGIYGAEAAAQNYFGVSAKQLSKWQAARLAVVLPNPYRIKVYPQSDYTARRTRWAMNQMSNLGSVQL | not soluble |
| SRPADLLQLVLLLDLPRDLGGMGCSSPPCECHQEEDFRVTCKDIQRIPSLPPSTQTLKLIETHLRTIPSHAFSNLPNISRIYVSIDVTLQQLESHSFYNLSKVTHIEIRNTRNLTYIDPDALKELPLLKFLGIFNTGLKMFPDLTKVYSTDIFFILEITDNPYMTSIPVNAFQGLCNETLTLKLYNNGFTSVQGYAFNGTKLDAVYLNKNKYLTVIDKDAFGGVYSGPSLLLPLGRKSLSFETQKAPRSSMPS | soluble |
| SRPRLSQLSVTDVTTSSLRLNWEAPPGAFDSFLLRFGVPSPSTLEPHPRPLLQRELMVPGTRHSAVLRDLRSGTLYSLTLYGLRGPHKADSIQGTARTL | soluble |
| SSNAKWDQWSSDWQTWNAKWDQWSNDWNAWRSDWQAWKDDWARWNQRWDNWAT | soluble |
| SSPATVTEPLKAEPAEAPVPLLRVSPSSLQCEPGYLLPNSPVLGTGGVTGYEYLTNILSSKVYDVAYETPLQKAPKLSERLGVNVLKREDLQPVFSFKIRGAYNMMAKLPKEQLEKGVICSSAGNHAQGVALSAQRLGCDAVIVMPVTTPDIKKSVKRLGATVVLVGDSYDEAQAYAKKRAESEGRTFIPPFDHPDVIVGQGTVGMEINRQLKDNIHAIFVPVGGGGLIAGIAAYLKRVAPDIKIIGVEPLDANALALSLHHGQRVMLDQVGGFADGVAVKVVGEETYRLCEELIDGVVLVGRDAICASIKDMFEEKRSILEPAGALALAGAEAYCKYYGLKGENVVAITSGANMNFDRLRLVTELADVGRQREAVLATFMPEDPGSFKKFAEMVGPMNITEFKYRYNSDKERALVLYSVGLHTILELEGMVERMESADLQTINLTDNDLVKDHLRHLMGGRTNVHNELLCRFTFPEKPGALMKFLDAFSPRNISLFHYRAQGDTGANVLVGIQVPPDEVVEFEGRADSLGYEYAMESLNEAYQLIMH | soluble |
| SSRVTYPLRKMREGAQDLAKGKFDTKIPILTQDEIGELATAFNQMGRQLNFHINALNQEKEQLSNILSSMADGVITINIDGTILVTNPPAERFLQAWYYEQNMNIKEGDNLPPEAKELFQNAVSTEKEQMIEMTLQGRSWVLLMSPLYAESHVRGAVAVLRDMTEERRLDKLREDFIANVSHELRTPISMLQGYSEAIVDDIASSEEDRKEIAQIIYDESLRMGRLVNDLLDLARMESGHTGLHYEKINVNEFLEKIIRKFSGVAKEKNIALDHDISLTEEEFMFDEDKMEQVFTNLIDNALRHTSAGGSVSISVHSVKDGLKIDIKDSGSGIPEEDLPFIFERFYKADKARTRGRAGTGLGLAIVKNIVEAHNGSITVHSRIDKGTTFSFYIPTKR | not soluble |
| SSSTLGKLSNQVEETLPLLKKVPANYFHICSAILMGFSLSKSATQVSAIHMDSKVDDHLIRGTEKSRLEPATQLFQNTKKIRLEDTNQENFTRIEGTGTGSLSGKALGSVVYVKESDGLEMTDVE | soluble |
| SSVWNLGRLNHVAIAVPDLEKAAAFYKNILGAQVSEAVPLPEHGVSVVFVNLGNTKMELLHPLGLDSPIAGFLQKNKAGGMHHICIEVDNINAAVMDLKKKKIRSLSEEVKIGAHGKPVIFLHPKDCGGVLVELEQA | soluble |
| STAKNSPKEFTASESEVCIKTFKEQMRLELELPKLPGNRPTSPKISPRSSPRNSPCFFRKLLVNKSIRQRRRFTVAHTCFDVENGPSPGRSPLDPQAGSSSGLVLHAAFPGHSQRRESFLYRSDSDYDLSPKAMSRNSSLPSEQHGDDLIVTPFAQVLASLRSVRNNFTLLTNLHGAPNKRSPAASQAPVSRVSLQVCDHRRLTKCRESKRC | not soluble |
| STGNAGEWCLMESDPGVFTELIKGFGCRGAQVEEIWSLEPENFEKLKPVHGLIFLFKWQPGEEPAGSVVQDSRLDTIFFAKQVINNACATQAIVSVLLNCTHQDVHLGETLSEFKEFSQSFDAAMKGLALSNSDVIRQVHNSFARQQMFEFDTKTSAKEEDAFHFVSYVPVNGRLYELDGLREGPIDLGACNQDDWISAVRPVIEKRIQKYSEGEIRFNLMAIVSDRKMIYEQKIAELQRQLAEEPMDTDQGNSMLSAIQSEVAKNQMLIEEEVQKLKRYKIENIRRKHNYLPFIMELLKTLAEHQQLIPLVEKAKEKQNAKKAQETK | soluble |
| STGVPATDLQQSIMKNVQPIELYFDNELVTDCSALGVYDNSYLVPLHLFEFDFDTIVLGGRHYKKAECEKVEFELEVNGDMVSSDACLLRVPSGPKVRNIVHLFTNEIELKKMTQVTGIMNSPHQARTVFFGSFLTVRKSILTSDGTVMPNVLSYAAQTSRGYCGAAIVAGSPARIIGIHSAGTGSVAFCSLVSKDALERTLPQKQ | not soluble |
| STKLLYLKPIQTGFPSDSDSRFVFSKLDSLSLRRQIPISISNSVLHSSLPAAKSLGLNVEVSESGMCSLNFRDEKTVTGAPELLCKTLYAWEAAISPHLAAERENATVEDSVVLQMIEKCLKEEMECGVKSEKSDLLCLVETAGGVASPGPSGTLQCDLYRPFRLPGILVGDGRLGGISGTIAAYESLKLRGYDIAAVVFEDHGLVNEVPLTSYLRNK | soluble |
| STPTSQALYSDFSPPEGLEELLSAPPPDLVAQRHHGWNPKDCSENIDVKEGGLCFERRPVAQSTDGVRGKRGYSRGLHAWEISWPLEQRGTHAVVGVATALAPLQADHYAALLGSNSESWGWDIGRGKLYHQSKGLEAPQYPAGPQGEQLVVPERLLVVLDMEEGTLGYSIGGTYLGPAFRGLKGRTLYPSVSAVWGQCQVRIRYMGERRVEE | soluble |
| SVACLSCRKRHIKCPGGNPCQKCVTSNAICEYLEPSKKIVVSTKYLQQLQKDLNDKTEENNRLKALLLER | soluble |
| SVELSAGQSIIADAAGALGPVNRDDAPAATWREGRVSFSGTPLMQALAEFERYGDTGLVIRDPAVAALKVNGSFDLRQIGAFARALPRVLPVQLSTRDGQTEII | not soluble |
| SVGHLHLQAMGDTREQSRDGLLDSPDSGLPPSPSPSPPFYALSPGTLDTRTTTEAPAAPSLFQTPPALEMRSRLLPVFFGESIEVDPEPAHEIRCNSEITYASERYFRDKIFYAPVPTVTAYSETIVAAPNCTWRSYRSQLTLEPRPRALRFGSTAIIFPKLARSSFRTTLHCSLGQPRHWYSSSLQLRRCGDPTPGPSCPDVL | soluble |
| SVLLQMTQRLALSDAHFRRICQLIYQRAGIVLADHKRDMVYNRLVRRLRALGLDDFGRYLSMLEANQNSAEWQAFINALTTNLTAFFREAHHFPILAEHARRRHGEYRVWSAAASTGEEPYSIAITLADALGMAPGRWKVFASDIDTEVLEKARSGIYRLSELKTLSPQQLQRYFMRGTGPHEGLVRVRQELANYVEFSSVNLLEKQYNVPGPFDAIFCRNVMIYFDKTTQEDILRRFVPLLKPDGLLFAGHSENFSNLVREFSLRGQTVYALS | soluble |
| SVQNPVEVSCSLQTQIFVFTPGASSVTIIWWVCFLTSVSMSAQTSPAEKGLNPGLMCQESYACSGTDEAIFECDECCSLQCLRCEEELHRQERLRNHERIRLKPGHVPYCDLCKGLSGHLPGVRQRAIVRCQTCKINLCLECQKRTHSGGNKRRHPVTVYNVSNLQESLEAEEMDEETKRKKMTEKVVSFLLVDENEEIQVTNEEDFIRKLDCKPDQHLKVVSIFGNTGDGKSHTLNHTFFYGREVFKTSPTQESCTVGVWAAYDPVHKVAVIDTEGLLGATVNLSQRTRLLLKVLAISDLVIYRTHADRLHNDLFKFLGDASEAYLKHFTKELKATTARCGLDVPLSTLGPAVIIFHETVHTQLLGSDHPSEVPEKLIQDRFRKLGRFPEAFSSIHYKGTRTYNPPTDFSGLRRALEQLLENNTTRSPRHPGVIFKALKALSDRFSGEIPDDQMAHSSFFPDEYFTCSSLCLSCGVGCKKSMNHGKEGVPHEAKSRCRYSHQYDNRVYTCKACYERGEEVSVVPKTSASTDSPWMGLAKYAWSGYVIECPNCGVVYRSRQYWFGNQDPVDTVVRTEIVHVWPGTDGFLKDNNNAAQRLLDGMNFMAQSVSELSLGPTKAVTSWLTDQIAPAYWRPNSQILSCNKCATSFKDNDTKHHCRACGEGFCDSCSSKTRPVPERGWGPAPVRVCDNCYEARNVQLAVTEAQVDDEGGTLIARKVGEAVQNTLGAVVTAIDIPLGLVKDAARPAYWVPDHEILHCHNCRKEFSIKLSKHHCRACGQGFCDECSHDRRAVPSRGWDHPVRVCFNCNKKPGDL | soluble |
| SWYIEEDLEKVNSNYFEEKDYELCRNELETTILDSVMKRVKGLEKVGIIYSGGVDSTLISKLASEYCEVILYSVGSENSEDLIYAERAAKDMGLDFRKKIISEDEFEEYVVKVAKAIDELDVMKLSVGIPILAASEMAKEDGIKVLLSGQGADELFAGYNRYQRILNEKGEDGLKESIISDVFDIHKINLERDDHCTMANGVELRVPFLDKFVIDVGLSIPVEYKIEEPRKKILRDIASKYVPDYIAQRPKKAAQYGSGSEKM | not soluble |
| SYTEVRELVNFVCRYLFGHIPRRPVGIFGAELGNYLVSHFSSTWDVHHPKNGEMKRMINTTTSLCFASSAEEAGVPPSDVLRLLPTNMIIFANPGHVFVRLSENGIETPIWIGDVNCDENYQSVPEYVVRTAAIRAEPCSNLGAAGKSVLVGKKPLLTNDKAALEMVNTMYSPLAREKCDDINANLSHLREMYPFRFVYKPSSAQTFSGVEFSQTRFGSSKSRPDLQTMDVIKYLSSQQVSSSSSPSFTYSSINDQMRYSPRF | soluble |
